Laboratory results as given in the nanobody polyreactivity screen of Harvey et al. (2022).

Test: yeast display, Sf9 membrane polyspecificity reagent, FACS + sequencing; frameworks hold sequencing errors
Method in brief: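 After 36–48 hours of galactose induction, yeast (Saccharomyces cerevisiae BJ5465) displaying a synthetic nanobody library were stained at 4 °C for 1 hour with 10% biotinylated, detergent-solubilized Sf9 membrane reagent. Streptavidin microbeads enriched the stained cells before FACS sorting into low and high (top ~1%) gates on anti-HA and streptavidin fluorescence. Each clone's polyreactivity label reflects its gate of origin.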

| Sequence | polyreactivity (PSR sort gate) |
| --- | --- |
| QVQLVESGGGLVQAGGSLRLSCAASGYTFVGYAMGWYRQAPGKERELVASISTGDSTYYADSVKGRFTISRDNAKNTVYLQMNSLKPEDTAVYYCAADFWEYEYPYDYWGQGTQVTVSS | low polyreactivity |
| QVQLVESGGGLVQAGGSLRLSCAASGYTFVYYAMGWYRQAPGKERELVAAITGNSGSTYADSVKGRFTISRDNAKNTVYLQMNSLNPEDTAVYYCAADQTGQDWYYVEFDYWGQGTQVTVSS | low polyreactivity |
| QVQLVESGGGLVQAGGSLRLSCAASGYTFWANAMGRYRQAPGKERELVAAISWTGGSTYYADSVKGRFTISRDNAKNTVYLQMNSLKPEDTAVYYCNRARINTRVQTDDYWGQGTQVTVSS | high polyreactivity |
| QVQLVESGGGLVQAGGSLRLSCAASGYTFWAYAMGWYRQAPGKERELVAAITYRGGSTYYADSVKGRFTISRDNAKNTVYLQMNSLKPEDTAVYYCAAEGYYTGYWDLYDYWGQGTQVTVSS | high polyreactivity |
| QVQLVESGGGLVQAGGSLRLSCAASGYTFWAYTMGWSRQAPGKERELVAAISFSGGSTYYADSVKGRFTISRDNAKNTVYLLMNSLKPEDTAVYYCAADYLIEMDYWGQGTQVTVSS | low polyreactivity |
| QVQLVESGGGLVQAGGSLRLSCAASGYTFWHYAMGWYRQAPGKEREFVATISSGGSTYYADSVKGRFTISRDNAMNTVYLQMNSLKPEDTAVYYCAADVDYIGPIYDYWGQGTQVTVSS | low polyreactivity |
| QVQLVESGGGLVQAGGSLRLSCAASGYTFWRYAMGWYRQAPGKERELVAAISASGGSTYYADSVKGRFTISRDNAKNTVYLQMNSLKPEDTAVYYCNAVSAYSYYVNYDYWGQGTQVTVSS | high polyreactivity |
| QVQLVESGGGLVQAGGSLRLSCAASGYTFYANAMGWYRQAPGKEREFVASITWSGGSTYYADSVKGRFTISRDNAKNNVYLQMHSLKPEDTAVYYCAAESWFKYDYWGQGTQVTVSS | low polyreactivity |
| QVQLVESGGGLVQAGGSLRLSCAASGYTFYANAMGWYRQAPGKEREFVASITWSGGSTYYPDSVKGRFTISRDNAKNTVYLQMNSLKPEDTAVYYCAAESWFKYDYWGQGTQETVSS | low polyreactivity |
| QVQLVESGGGLVQAGGSLRLSCAASGYTFYLYAMGWYRQAPGKESELVAAISTNGGRTYYADSVKGRFTISRDNAKNTVYLQMNSLKPEDTAVYYCAVRSRGTAPQYYYWGQGTQVTVSS | high polyreactivity |
| QVQLVESGGGLVQAGGSLRLSCAASGYTFYPYAMGWYRQAPGKERELVAAISYSGGRTYYADSVKGRFTISRDNAKNTVYLQMNSLKPEDTAVYYCAADSGRYRMYYWGQGTQVTVSS | high polyreactivity |
| QVQLVESGGGLVQAGGSLRLSCAASGYTFYQNAMGWYRQAPGKERELVAAITFRTGSTYYADSVKGRFTISRDNAKNTVYLQMNSLKPEDTAVYYCAATRFLRYWWYGYWGQGTQVTVSS | low polyreactivity |
| QVQLVESGGGLVQAGGSLRLSCAASGYTFYYYAMGWYRQAPGKEREFVAAISWRGGRTYYADSVKGRFTISRDNAKNTVYLQMNSLKPEDTAVYYCAARRDGWTFWKYDYWGQGTQVTVSS | high polyreactivity |
| QVQLVESGGGLVQAGGSLRLSCAASGYTIFSYGMGWYRQAPGKERELVAAISSGDRTNYADSVKGRFTISRDNAKNTVYLQMNSLKPEDTAVYYCNADRASSSVGYSDDFGHDSWGQGTQVTVSS | low polyreactivity |
| QVQLVESGGGLVQAGGSLRLSCAASGYTIRKNAMGWYRQAPGKERELVAAMSRSGGSTYYADSVKGRFTISRDNAKNIVYLQMNSLKPEDTAVYYCNTRYPYYWPMYGYWGQGTQVTVSS | high polyreactivity |
| QVQLVESGGGLVQAGGSLRLSCAASGYTIRYNALGWYRQAPGKERELVAAITQRSGSTYADSVKGRFTISRDNAKNTVYLQMNSLKPEDTAVYYCAARTPGYKLYDYWGQGTQVTVSS | low polyreactivity |

| Sequence | polyreactivity (PSR sort gate) |
| --- | --- |
| QVQLVESGGGLVQAGGSLRLSCAASGYTIYSYAMGWYRQAPGKERELVAAITESGARTYYADSVKGRFTISRDNAKNTVYLLMNSLKPEDSAVYYCAADYAWPLRVTGDYWGQGTQVTVSS | low polyreactivity |
| QVQLVESGGGLVQAGGSLRLSCAASGYTLGSYAMGWYRQAPGKERELVATITWGGGSTDYADSVKGRFTISRDNAKNTVYLQMNSLKPEDTAVYYCAAEDDSYDVEGSLYYWGQGTQVTVSS | low polyreactivity |
| QVQLVESGGGLVQAGGSLRLSCAASGYTLRPNGMGWYRPAPGKERELVAAISSGGSTYYADSVKGRFTISRDNAKNTVYLQMNSLKPEDTAVYYCAAEYWYDYWGQGTQVTVSS | low polyreactivity |
| QVQLVESGGGLVQAGGSLRLSCAASGYTLSFNAMGWYRQAPGKARELVAGITYSGGSTYYSDSVKGRFTISRDNAKNTVYLQMTSLKPEDTAVYYCNKASGVYYGHLDYWGQGTQVTVSS | low polyreactivity |
| QVQLVESGGGLVQAGGSLRLSCAASGYTLTPYTMGWYRQAPGKERELVAAINRSGGSTYYADSVKGRFTISRDNAKNTVYLQMNSLKPEDTAVYYCAAYGYYNFGYYYWGQGTQVTVSS | high polyreactivity |
| QVQLVESGGGLVQAGGSLRLSCAASGYTLYPNAMGRYRQAPGKERELVAAISSGSSTYADSLKGRFTISRDNAKNTVYLQMNSLKPVDTAVYYCNADARIHYDYWGQGTQVTVSS | low polyreactivity |
| QVQLVESGGGLVQAGGSLRLSCAASGYTMGWYRQAPGKEREYGAAINQTGGSTYADSVKGRFTISRDNAKNTVYLQMNSLKPEDTAVYYCATDPAYWGDQPPEYDYWGQGTQVTVSS | low polyreactivity |
| QVQLVESGGGLVQAGGSLRLSCAASGYTVLYAIGWYRQAPRKDRELVAAISSRTGTTYYADSVKGRFTISRDNAKNSVYLQMNSLKREDTAVYYCNVEYFYYFRENGDYWGQGTQVTVSS | low polyreactivity |
| QVQLVESGGGLVQAGGSLRLSCAASGYTVRFNAMGWYRQAPGKEREFVAAIDFGGAGTYYADSVKGRFTISRDNAKNTVYLQMNSLKPEDTAVYYCNARDGVTTEFDYWGQGTQVTVSS | low polyreactivity |
| QVQLVESGGGLVQAGGSLRLSCAASISSINAMGWYRQAPAKEREVVAASRWSGSSTYYADSVKGRFTISRDNAKNTVYLQMNSLKPEDTAGYYCAADTTTGDRGFDYWGQGTQVTVSS | high polyreactivity |
| QVQLVESGGGLVQAGGSLRLSCAASKESINAMGWYRQAPGKERELVAAIGWSGSSTYYADSVKGRFTISRDNAKNTVYLQMNSLKPEDTAVYYCAADTTTGDRGFDYWGQGTQVTVSS | high polyreactivity |
| QVQLVESGGGLVQAGGSLRLSCAASLRTFAWYAMGWYRQAPGKERELVAAITNRGSGTYYADSVKGRFTISRDNAKNTVYLQMNSLKPEDTAVYYCAKDPITATTLDERVFYWGQGTQVTLSS | low polyreactivity |
| QVQLVESGGGLVQAGGSLRLSCAASRITFSLYAMGWYRQAPGKERELGAAISRGGSTKYADSVKGRFTISRDNAKNTVYLQMNSLKPEDTAVYYCNASARTYGGQTWNYYWGQGTQVTVSS | high polyreactivity |
| QVQLVESGGGLVQAGGSLRLSCAASRITFYSYAMGWYRQAPGKERELVAAITFRGTSTYYADSVKGRFTISRDNAKNTVYLQMNSQKPEDTAVYYCAAYSGQARGYDYWGQGTQVTVSS | high polyreactivity |
| QVQLVESGGGLVQAGGSLRLSCAASRPIFYANAKGGYRQAPGKEREFVATIRRGTSTNYADSVKGRFTISRDNAKNTVYLQMNSLKPEDTAVYYCAVVSNGRRERYYYWGQGTQVTVSS | low polyreactivity |
| QVQLVESGGGLVQAGGSLRLSCAASRRIFGFYAMGWYRQAPGKERELVADINWSATSTYYADSVKGRFTISRDTAKNTVYLQMNSLKPEDTAVYYCAADVSYRYYWGQGTQVTVSS | low polyreactivity |
